Source: patent publication US9493780B2, “Chloroplast transit peptide” (Dow AgroSciences LLC, priority 2012, dated 2016)
“Also recorded” adds a separate entry of the source.

B1: TraP14: chimeric chloroplast transit peptide (SEQ ID NO:3): N-terminus from Dunaliella salina GPDH, C-terminus from D. salina EPSPS (protein)
chain: MILGSSPTLPHASHPARPGPARPISVNDVVPHVYSAPLSVARRSCSKSSIRSTRRLQTTVCS
modifications: chimeric TraP14 fusion protein
B2: TraP5 v2: chloroplast transit peptide fused to dgt-28 (protein)
chain: MQLLNQRQALRLGRSSASKNQQVAPLASRPASSLSVSASSVAPAPACSAPAGAGRRAVVVRA
modifications: Chloroplast Transit Peptide

Tests used:
[1] = system: chloroplasts of the maize protoplast; test: Maize protoplast transient assay of TraP14-GFP (microscopy); type: cell-based, Zea mays; details: TraP14-GFP fusion; microscopy after 12 hours of incubation
Description: The Trap14v2 chimeric chloroplast transit peptide sequence (SEQ ID NO:8) were cloned upstream of the green fluorescent protein gene and incorporated into construct pDAB109902 (FIG. 4) for testing via the maize protoplast transient in planta assay. The resulting constructs contained a single plant transcription unit (PTU). The first PTU was comprised of the Zea mays Ubiquitin 1 promoter (ZmUbi1 promoter; Christensen, A., Sharrock R., and Quail P., (1992) Maize polyubiquitin genes: structure, thermal perturbation of expression and transcript splicing, and promoter activity following transfer to protoplasts by electroporation, Plant Molecular Biology, 18:675-689), TraP-green fluorescent protein fusion gene (TraP14-GFP; U.S. Pat. No. 7,678,893), and Zea mays Peroxidase 5 3′ untranslated region (ZmPer5 3′UTR; U.S. Pat. No. 6,384,207). The constructs were confirmed via restriction enzyme digestion and sequencing.
Seed of Zea mays var. B104 were surface sterilized by shaking vigorously in 50% Clorox (3% sodium hypochlorite), containing 2-3 drops of Tween 20, for about 20 minutes. […]
Transfection of 100 to 500 μl of protoplasts (1−5×10^5) was completed by adding the protoplasts to a 2 ml microfuge tube containing about 40 μg of plasmid DNA (pDAB106597), at room temperature. […] Fluorescence of GFP was viewed by microscopy after 12 hours of incubation. […]

T2 Arabidopsis = T2 Arabidopsis events response to glyphosate applied postemergence, visual % injury; type: in vivo, Arabidopsis thaliana; details: T2 Arabidopsis single copy events
Description: The second generation plants (T2) of selected T1 Arabidopsis events which contained low copy numbers of the dgt-28 transgene were further characterized for glyphosate tolerance. Glyphosate was applied as described previously. The response of the plants is presented in terms of % visual injury 2 weeks after treatment (WAT). […] An arithmetic mean and standard deviation are presented for each construct used for Arabidopsis transformation. The range in individual response is also indicated in the last column for each rate and transformation. Wild-type, non-transformed Arabidopsis (cv. Columbia) served as a glyphosate sensitive control. In the T2 generation hemizygous and homozygous plants were available for testing for each event and therefore were included for each rate of glyphosate tested. Hemizygous plants contain two different alleles at a locus as compared to homozygous plants which contain the same two alleles at a locus. Variability of response to glyphosate is expected in the T2 generation as a result of the difference in gene dosage for hemizygous as compared to homozygous plants. The variability in response to glyphosate is reflected in the standard deviation and range of response.

Molecule | translocation of GFP into chloroplasts [1] | tolerance to glyphosate (T2 Arabidopsis)
B1 | accumulated within the chloroplasts; also recorded: successfully targeted GFP to maize chloroplasts | 
B2 |  | did not provide robust tolerance to glyphosate
